Test results published in PMC2808332, “Expanding the Substantial Interactome of NEMO Using Protein Microarrays” (PLoS ONE, 2010).

B1: Proteasome (prosome, macropain) subunit, alpha type, 3 (natural protein, human, UniProt P25788-1 1-255, looked up)
chain: MSSIGTGYDLSASTFSPDGRVFQVEYAMKAVENSSTAIGIRCKDGVVFGVEKLVLSKLYEEGSNKRLFNVDRHVGMAVAGLLADARSLADIAREEASNFRSNFGYNIPLKHLADRVAMYVHAYTLYSAVRPFGCSFMLGSYSVNDGAQLYMIDPSGVSYGYWGCAIGKARQAAKTEIEKLQMKEMTCRDIVKEVAKIIYIVHDEVKDKAFELELSWVGELTNGRHEIVPKDIREEAEKYAKESLKEEDESDDDNM
notes: Proteasome (prosome, macropain) subunit, alpha type, 3, human; also called PSMA3; source: insect cell/baculovirus, purified, spotted (Invitrogen Protoarray v4.0)
B2: Odontogenic, ameloblast associated (natural protein, human, UniProt A1E959 16-279, looked up)
chain: APLIPQRLMSASNSNELLLNLNNGQLLPLQLQGPLNSWIPPFSGILQQQQQAQIPGLSQFSLSALDQFAGLLPNQIPLTGEASFAQGAQAGQVDPLQLQTPPQTQPGPSHVMPYVFSFKMPQEQGQMFQYYPVYMVLPWEQPQQTVPRSPQQTRQQQYEEQIPFYAQFGYIPQLAEPAISGGQQQLAFDPQLGTAPEIAVMSTGEEIPYLQKEAINFRHDSAGVFMPSTSPKPSTTNVFTSAVDQTITPELPEEKDKTDSLREP
notes: Odontogenic, ameloblast associated, human; also called ODAM; source: insect cell/baculovirus, purified, spotted (Invitrogen Protoarray v4.0)
B3: Cyclic AMP phosphoprotein, 19 kDa (natural protein, human, UniProt P56211-1 1-112, looked up)
chain: MSAEVPEAASAEEQKEMEDKVTSPEKAEEAKLKARYPHLGQKPGGSDFLRKRLQKGQKYFDSGDYNMAKAKMKNKQLPTAAPDKTEVTGDHIPTPQDLPQRKPSLVASKLAG
notes: Cyclic AMP phosphoprotein, 19 kDa, human; also called ARPP-19; source: insect cell/baculovirus, purified, spotted (Invitrogen Protoarray v4.0)
B4: TBC1 domain family, member 7 (natural protein, human, UniProt Q9P0N9-1 1-293, looked up)
chain: MTEDSQRNFRSVYYEKVGFRGVEEKKSLEILLKDDRLDTEKLCTFSQRFPLPSMYRALVWKVLLGILPPHHESHAKVMMYRKEQYLDVLHALKVVRFVSDATPQAEVYLRMYQLESGKLPRSPSFPLEPDDEVFLAIAKAMEEMVEDSVDCYWITRRFVNQLNTKYRDSLPQLPKAFEQYLNLEDGRLLTHLRMCSAAPKLPYDLWFKRCFAGCLPESSLQRVWDKVVSGSCKILVFVAVEILLTFKIKVMALNSAEKITKFLENIPQDSSDAIVSKAIDLWHKHCGTPVHSS
notes: TBC1 domain family, member 7, human; also called TBC1D7; source: insect cell/baculovirus, purified, spotted (Invitrogen Protoarray v4.0)
B5: CUE domain containing 1 (natural protein, human, UniProt Q9NWM3 1-386, looked up)
chain: MTSLFRRSSSGSGGGGTAGARGGGGGTAAPQELNNSRPARQVRRLEFNQAMDDFKTMFPNMDYDIIECVLRANSGAVDATIDQLLQMNLEGGGSSGGVYEDSSDSEDSIPPEILERTLEPDSSDEEPPPVYSPPAYHMHVFDRPYPLAPPTPPPRIDALGSGAPTSQRRYRNWNPPLLGNLPDDFLRILPQQLDSIQGNAGGPKPGSGEGCPPAMAGPGPGDQESRWKQYLEDERIALFLQNEEFMKELQRNRDFLLALERDRLKYESQKSKSSSVAVGNDFGFSSPVPGTGDANPAVSEDALFRDKLKHMGKSTRRKLFELARAFSEKTKMRKSKRKHLLKHQSLGAAASTANLLDDVEGHACDEDFRGRRQEAPKVEEGLREGQ
notes: CUE domain containing 1, human; also called CUEDC1; source: insect cell/baculovirus, purified, spotted (Invitrogen Protoarray v4.0)
B6: Ring finger protein 7 (sensitive to apoptosis gene, SAG) (natural protein, human, UniProt Q9UBF6-1 1-113, looked up)
chain: MADVEDGEETCALASHSGSSGSKSGGDKMFSLKKWNAVAMWSWDVECDTCAICRVQVMDACLRCQAENKQEDCVVVWGECNHSFHNCCMSLWVKQNNRCPLCQQDWVVQRIGK
notes: Ring finger protein 7 (sensitive to apoptosis gene, SAG), human; also called RNF7; source: insect cell/baculovirus, purified, spotted (Invitrogen Protoarray v4.0)
B7: Leucine zipper and CTNNBIP1 domain containing (natural protein, human, UniProt Q8WZA0-1 1-190, looked up)
chain: MASRGKTETSKLKQNLEEQLDRLMQQLQDLEECREELDTDEYEETKKETLEQLSEFNDSLKKIMSGNMTLVDELSGMQLAIQAAISQAFKTPEVIRLFAKKQPGQLRTRLAEMDRDLMVGKLERDLYTQQKVEILTALRKLGEKLTADDEAFLSANAGAILSQFEKVSTDLGSGDKILALASFEVEKTKK
notes: Leucine zipper and CTNNBIP1 domain containing, human; also called LZIC; source: insect cell/baculovirus, purified, spotted (Invitrogen Protoarray v4.0)
B8: Centrin EF-hand protein 3 (natural protein, human, UniProt O15182 1-167, looked up)
chain: MSLALRSELVVDKTKRKKRRELSEEQKQEIKDAFELFDTDKDEAIDYHELKVAMRALGFDVKKADVLKILKDYDREATGKITFEDFNEVVTDWILERDPHEEILKAFKLFDDDDSGKISLRNLRRVARELGENMSDEELRAMIEEFDKDGDGEINQEEFIAIMTGDI
notes: Centrin EF-hand protein 3, human; also called CETN3; source: insect cell/baculovirus, purified, spotted (Invitrogen Protoarray v4.0)
B9: Arginine vasopressin-induced 1 (natural protein, human, UniProt Q5T686 1-147, looked up)
chain: MGTPASVVSEPPPWQAPIEARGRKQASANIFQDAELLQIQALFQRSGDQLAEERAQIIWECAGDHRVAEALKRLRRKRPPRQKPLGHSLHHCSRLRILEPHSALANPQSATETASSEQYLHSRKKSARIRRNWRKSGPTSYLHQIRH
notes: Arginine vasopressin-induced 1, human; also called AVPI1; source: insect cell/baculovirus, purified, spotted (Invitrogen Protoarray v4.0)
B10: Centaurin, alpha 2 (natural protein, human, UniProt Q9NPF8 1-381, looked up)
chain: MGDRERNKKRLLELLRAPDTGNAHCADCGAADPDWASYKLGIFICLNCCGVHRNFPDISRVKSVRLDFWDDSIVEFMIHNGNLRVKAKFEARVPAFYYIPQANDCLVLKEQWIRAKYERREFMADGETISLPGNREGFLWKRGRDNSQFLRRKFVLLAREGLLKYFTKEQGKSPKAVISIKDLNATFQTEKIGHPHGLQITYRRDGHTRNLFVYHESGKEIVDWFNALRAARLQYLKMAFPELPESELVPFLTRNYLKQGFMEKTGPKQKEPFKKRWFALDCHERRLLYYKNPLDAFEQGQVFLGNKEQGYEAYEDLPKGIRGNRWKAGLTIVTPERRFVLTCPSEKEQQEWLESLRGVLSSPLTPLNRLTASTESGRSSR
notes: Centaurin, alpha 2, human; also called CENTA2; source: insect cell/baculovirus, purified, spotted (Invitrogen Protoarray v4.0)
B11: Calbindin D28K (natural protein, human, UniProt P05937-1 1-261, looked up)
chain: MAESHLQSSLITASQFFEIWLHFDADGSGYLEGKELQNLIQELQQARKKAGLELSPEMKTFVDQYGQRDDGKIGIVELAHVLPTEENFLLLFRCQQLKSCEEFMKTWRKYDTDHSGFIETEELKNFLKDLLEKANKTVDDTKLAEYTDLMLKLFDSNNDGKLELTEMARLLPVQENFLLKFQGIKMCGKEFNKAFELYDQDGNGYIDENELDALLKDLCEKNKQDLDINNITTYKKNIMALSDGGKLYRTDLALILCAGDN
notes: also called CALB1; source: insect cell/baculovirus, purified, spotted (Invitrogen Protoarray v4.0)
B12: Acyl-Coenzyme A binding domain containing 6 (natural protein, human, UniProt Q9BR61 1-282, looked up)
chain: MASSFLPAGAITGDSGGELSSGDDSGEVEFPHSPEIEETSCLAELFEKAAAHLQGLIQVASREQLLYLYARYKQVKVGNCNTPKPSFFDFEGKQKWEAWKALGDSSPSQAMQEYIAVVKKLDPGWNPQIPEKKGKEANTGFGGPVISSLYHEETIREEDKNIFDYCRENNIDHITKAIKSKNVDVNVKDEEGRALLHWACDRGHKELVTVLLQHRADINCQDNEGQTALHYASACEFLDIVELLLQSGADPTLRDQDGCLPEEVTGCKTVSLVLQRHTTGKA
notes: also called ACBD6; source: insect cell/baculovirus, purified, spotted (Invitrogen Protoarray v4.0)
B13: Leupaxin (natural protein, human, UniProt O60711-1 1-386, looked up)
chain: MEELDALLEELERSTLQDSDEYSNPAPLPLDQHSRKETNLDETSEILSIQDNTSPLPAQLVYTTNIQELNVYSEAQEPKESPPPSKTSAAAQLDELMAHLTEMQAKVAVRADAGKKHLPDKQDHKASLDSMLGGLEQELQDLGIATVPKGHCASCQKPIAGKVIHALGQSWHPEHFVCTHCKEEIGSSPFFERSGLAYCPNDYHQLFSPRCAYCAAPILDKVLTAMNQTWHPEHFFCSHCGEVFGAEGFHEKDKKPYCRKDFLAMFSPKCGGCNRPVLENYLSAMDTVWHPECFVCGDCFTSFSTGSFFELDGRPFCELHYHHRRGTLCHGCGQPITGRCISAMGYKFHPEHFVCAFCLTQLSKGIFREQNDKTYCQPCFNKLFPL
notes: Leupaxin, human; also called LPXN; source: insect cell/baculovirus, purified, spotted (Invitrogen Protoarray v4.0)
B14: Chromosome 9 open reading frame 32 (natural protein, human, UniProt Q9BV86 1-223, looked up)
chain: MTSEVIEDEKQFYSKAKTYWKQIPPTVDGMLGGYGHISSIDINSSRKFLQRFLREGPNKTGTSCALDCGAGIGRITKRLLLPLFREVDMVDITEDFLVQAKTYLGEEGKRVRNYFCCGLQDFTPEPDSYDVIWIQWVIGHLTDQHLAEFLRRCKGSLRPNGIIVIKDNMAQEGVILDDVDSSVCRDLDVVRRIICSAGLSLLAEERQENLPDEIYHVYSFALR
notes: Chromosome 9 open reading frame 32, human; also called C9ORF32; source: insect cell/baculovirus, purified, spotted (Invitrogen Protoarray v4.0)
B15: PIM2 (printed gene product: Pediatric index of mortality 2) (natural protein)
chain: not shown
notes: source: insect cell/baculovirus, purified, spotted (Invitrogen Protoarray v4.0)
B16: Myosin light chain 5, regulatory (natural protein, human, UniProt Q02045-1 1-173, looked up)
chain: MASRKTKKKEGGALRAQRASSNVFSNFEQTQIQEFKEAFTLMDQNRDGFIDKEDLKDTYASLGKTNVKDDELDAMLKEASGPINFTMFLNLFGEKLSGTDAEETILNAFKMLDPDGKGKINKEYIKRLLMSQADKMTAEEVDQMFQFASIDVAGNLDYKALSYVITHGEEKEE
notes: Myosin light chain 5, regulatory, human; also called MYL5; source: insect cell/baculovirus, purified, spotted (Invitrogen Protoarray v4.0)
B17: Pleckstrin homology domain containing, family J member 1 (natural protein, human, UniProt Q9NW61 1-149, looked up)
chain: MRYNEKELQALSRQPAEMAAELGMRGPKKGSVLKRRLVKLVVNFLFYFRTDEAEPVGALLLERCRVVREEPGTFSISFIEDPERKYHFECSSEEQCQEWMEALRRASYEFMRRSLIFYRNEIRKVTGKDPLEQFGISEEARFQLSGLQA
notes: Pleckstrin homology domain containing, family J member 1, human; also called PLEKHJ1; source: insect cell/baculovirus, purified, spotted (Invitrogen Protoarray v4.0)
B18: AMME chromosomal region gene 1-like (natural protein, human, UniProt Q6DCA0 1-310, looked up)
chain: MGKRRCVPPLEPKLAAGCCGVKKPKLSGSGTHSHGNQSTTVPGSSSGPLQNHQHVDSSSGRENVSDLTLGPGNSPITRMNPASGALSPLPRPNGTANTTKNLVVTAEMCCYCFDVLYCHLYGFPQPRLPRFTNDPYPLFVTWKTGRDKRLRGCIGTFSAMNLHSGLREYTLTSALKDSRFPPLTREELPKLFCSVSLLTNFEDASDYLDWEVGVHGIRIEFINEKGVKRTATYLPEVAKEQDWDQIQTIDSLLRKGGFKAPITSEFRKTIKLTRYRSEKVTISYAEYIASRQHCFQNGTLHAPPLYNHYS
notes: AMME chromosomal region gene 1-like, human; also called AMMECR1L; source: insect cell/baculovirus, purified, spotted (Invitrogen Protoarray v4.0)
B19: G protein, γ-transducing activity polypeptide 1 (natural protein, human, UniProt P63211 1-74, looked up)
chain: MPVINIEDLTEKDKLKMEVDQLKKEVTLERMLVSKCCEEVRDYVEERSGEDPLVKGIPEDKNPFKELKGGCVIS
notes: G protein, γ-transducing activity polypeptide 1, human; also called GNGT1; source: insect cell/baculovirus, purified, spotted (Invitrogen Protoarray v4.0)
B20: NOTCH-regulated ankyrin repeat protein (natural protein, human, UniProt Q7Z6K4 1-114, looked up)
chain: MSQAELSTCSAPQTQRIFQEAVRKGNTQELQSLLQNMTNCEFNVNSFGPEGQTALHQSVIDGNLELVKLLVKFGADIRLANRDGWSALHIAAFGGHQDIVLYLITKAKYAASGR
notes: NOTCH-regulated ankyrin repeat protein, human; also called NRARP; source: insect cell/baculovirus, purified, spotted (Invitrogen Protoarray v4.0)
B21: Prefoldin 5, transcript variant 1 (natural protein, human, UniProt Q99471-1 1-154, looked up)
chain: MAQSINITELNLPQLEMLKNQLDQEVEFLSTSIAQLKVVQTKYVEAKDCLNVLNKSNEGKELLVPLTSSMYVPGKLHDVEHVLIDVGTGYYVEKTAEDAKDFFKRKIDFLTKQMEKIQPALQEKHAMKQAVMEMMSQKIQQLTALGAAQATAKA
notes: Prefoldin 5, human; also called PFDN5; source: insect cell/baculovirus, purified, spotted (Invitrogen Protoarray v4.0)

Molecular target: T1, NEMO (NF-κB essential modulator), tag-free, biotinylated (human, UniProt Q9Y6K9 1-419, biotin (in vitro biotinylation kit, biotin:NEMO molar ratio 9:1))
T1 construct: NEMO, NF-κB essential modulator, human, 48 kDa; also called biotinylated NEMO; biotin-NEMO; source: E. coli BL21(DE3), purified (glutathione sepharose), GST removed with thrombin, biotinylated in vitro
Experiment: peptide or protein array; Invitrogen Protoarray v4.0, about 8,400 human proteins spotted on nitrocellulose-coated glass slides; 10 µg biotinylated tag-free NEMO in 120 µl probing buffer (PBS, 0.5 mM DTT, 5 mM MgCl2, 5% glycerol, 0.05% Triton X-100), 4°C, 1.5 h; bound NEMO detected with labelled streptavidin; hits Z-score > 3, hits of the biotin-GST control array subtracted
Settings: both partners purified

Row | Binder | binding result
1 | B1 | binds
2 | B2 | binds
3 | B3 | binds
4 | B4 | binds
5 | B5 | binds
6 | B6 | binds
7 | B7 | binds
8 | B8 | binds
9 | B9 | binds
10 | B10 | binds
11 | B11 | binds
12 | B12 | binds
13 | B13 | binds
14 | B14 | binds
15 | B15 | binds
16 | B16 | binds
17 | B17 | binds
18 | B18 | binds
19 | B19 | binds
20 | B20 | binds
21 | B21 | binds
